In series [1] the test system is HU (Mycoplasma gallisepticum). The series can be described thus: EMSA. Conditions: 20 mM Tris-HCl pH 8.0, 7% glycerol, 40 mM NaCl (dsDNA length series, 200 nM DNA, gel 50 mM Tris-borate) or 150 mM NaCl (distorted structures, 10.5 nM DNA, gel …).
The target of series [2] is T1, HU (Neisseria gonorrhoeae, UniProt Q5F8J6 1-89).
T1 sequence: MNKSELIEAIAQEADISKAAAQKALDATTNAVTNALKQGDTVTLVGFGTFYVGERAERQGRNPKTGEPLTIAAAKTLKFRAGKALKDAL
The experiment in a line: EMSA. Conditions: 20 mM Tris-HCl pH 8.0, 7% glycerol, 40 mM NaCl (dsDNA length series, 200 nM DNA, gel 50 mM Tris-borate) or 150 mM NaCl (distorted structures, 10.5 nM DNA, gel …). Background: In EMSA bound probe runs differently from free probe, usually more slowly.

Series [3] deals with T2, HU (Mycoplasma gallisepticum) (UniProt A0A0F6CKR5).
T2 sequence: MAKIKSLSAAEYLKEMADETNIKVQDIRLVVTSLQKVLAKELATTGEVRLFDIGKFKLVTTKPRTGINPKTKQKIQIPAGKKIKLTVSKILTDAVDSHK
The experiment in a line: EMSA. Conditions: 20 mM Tris-HCl pH 8.0, 150 mM NaCl, 7% glycerol; 15 min; labelled DNA 10.5 nM; gel in 100 mM Tris-borate; temperature not stated; low values mean tight binding.

Series [4] concerns the target T3, HU (Neisseria gonorrhoeae) (UniProt Q5F8J6).
T3 sequence: T1 sequence
The experiment in a line: EMSA. The following applies: 20 mM Tris-HCl pH 8.0, 150 mM NaCl, 7% glycerol; 15 min; labelled DNA 10.5 nM; gel in 100 mM Tris-borate; temperature not stated; low values mean tight binding.

The target in series [5] is T4, HU (Spiroplasma melliferum) (UniProt A0ABX5UAT3).
T4 sequence: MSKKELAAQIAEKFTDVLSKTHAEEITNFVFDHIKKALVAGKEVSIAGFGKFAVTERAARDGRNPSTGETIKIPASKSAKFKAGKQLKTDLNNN
The experiment in a line: EMSA. Conditions: 20 mM Tris-HCl pH 8.0, 150 mM NaCl, 7% glycerol; 15 min; labelled DNA 10.5 nM; gel in 100 mM Tris-borate; temperature not stated; low values mean tight binding.

The target in series [6] is T5, HU alpha (Escherichia coli) (UniProt P0ACF0).
T5 sequence: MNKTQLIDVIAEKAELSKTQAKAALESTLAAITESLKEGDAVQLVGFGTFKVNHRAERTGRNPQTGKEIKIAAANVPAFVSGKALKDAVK
The series can be described thus: EMSA. Conditions: 20 mM Tris-HCl pH 8.0, 150 mM NaCl, 7% glycerol; 15 min; labelled DNA 10.5 nM; gel in 100 mM Tris-borate; temperature not stated; low values mean tight binding.

In series [7] the test system is HU (Spiroplasma melliferum). The experiment in a line: EMSA. Conditions: 20 mM Tris-HCl pH 8.0, 7% glycerol, 40 mM NaCl (dsDNA length series, 200 nM DNA, gel 50 mM Tris-borate) or 150 mM NaCl (distorted structures, 10.5 nM DNA, gel …).
The target in series [8] is T1, HU. The series can be described thus: EMSA; 40 mM NaCl; 3 complexes; 20 mM Tris-HCl pH 8.0, 7% glycerol, 40 mM NaCl (dsDNA length series, 200 nM DNA, gel 50 mM Tris-borate) or 150 mM NaCl (distorted structures, 10.5 nM DNA, gel 100 mM Tris-borate); 15 min, temperature not stated. Conditions: protein: recombinant; tags: N-terminal 6xHisTEV removed by TEV protease; chain copies: 2; label: 5'-HEX; blunt.

In series [9] the target is T1, HU. The experiment in a line: EMSA; 20 mM Tris-HCl pH 8.0, 150 mM NaCl, 7% glycerol; 15 min; labelled DNA 10.5 nM; gel in 100 mM Tris-borate; temperature not stated. The following applies: protein: recombinant, tags: N-terminal 6xHisTEV removed by TEV protease, chain copies: 2, label: 5'-HEX on strand 1.
The target in series [10] is T6, HU alpha (Escherichia coli, UniProt P0ACF0 1-90). The series is described as above. Conditions: protein: recombinant, tags: N-terminal 6xHisTEV removed by TEV protease, chain copies: 2, label: 5'-HEX on strand 1.
For series [11], the target named is HU (Mycoplasma gallisepticum, UniProt A0A0F6CKR5 1-99). The description is as above. Conditions: protein: recombinant, tags: N-terminal 6xHisTEV removed by TEV protease, chain copies: 2, label: 5'-HEX on strand 1.
Series [12] has as its target T7, HU (Spiroplasma melliferum, UniProt A0ABX5UAT3 1-94).
T7 sequence: T4 sequence
The description is as above. The following applies: protein: recombinant, tags: N-terminal 6xHisTEV removed by TEV protease, chain copies: 2, label: 5'-HEX on strand 1.

The target in series [13] is T1, HU. The series can be described thus: EMSA; 150 mM NaCl; 20 mM Tris-HCl pH 8.0, 7% glycerol, 40 mM NaCl (dsDNA length series, 200 nM DNA, gel 50 mM Tris-borate) or 150 mM NaCl (distorted structures, 10.5 nM DNA, gel 100 mM Tris-borate); 15 min, temperature not stated. Conditions: protein: recombinant; tags: N-terminal 6xHisTEV removed by TEV protease; chain copies: 2; label: 5'-HEX on strand 1; four-way junction 1:2 2:3 3:4 4:1.

In series [14] the target is T6, HU alpha. The series can be described thus: EMSA; 40 mM NaCl; 3 complexes; 20 mM Tris-HCl pH 8.0, 7% glycerol, 40 mM NaCl (dsDNA length series, 200 nM DNA, gel 50 mM Tris-borate) or 150 mM NaCl (distorted structures, 10.5 nM DNA, gel 100 mM Tris-borate); 15 min, temperature not stated. Conditions: protein: recombinant; tags: N-terminal 6xHisTEV removed by TEV protease; chain copies: 2; label: 5'-HEX; blunt.

Series [15] addresses T6, HU alpha. The experiment in a line: EMSA; 40 mM NaCl; 20 mM Tris-HCl pH 8.0, 7% glycerol, 40 mM NaCl (dsDNA length series, 200 nM DNA, gel 50 mM Tris-borate) or 150 mM NaCl (distorted structures, 10.5 nM DNA, gel 100 mM Tris-borate); 15 min, temperature not stated. The following applies: protein: recombinant; tags: N-terminal 6xHisTEV removed by TEV protease; chain copies: 2; label: 5'-HEX; blunt.

Series [16] concerns the target T1, HU. The experiment in a line: EMSA; 40 mM NaCl; 2 complexes; 20 mM Tris-HCl pH 8.0, 7% glycerol, 40 mM NaCl (dsDNA length series, 200 nM DNA, gel 50 mM Tris-borate) or 150 mM NaCl (distorted structures, 10.5 nM DNA, gel 100 mM Tris-borate); 15 min, temperature not stated. Conditions: protein: recombinant; tags: N-terminal 6xHisTEV removed by TEV protease; chain copies: 2; label: 5'-HEX; blunt.

Series [17] has as its target T1, HU. The series can be described thus: EMSA; 40 mM NaCl; 4 complexes; 20 mM Tris-HCl pH 8.0, 7% glycerol, 40 mM NaCl (dsDNA length series, 200 nM DNA, gel 50 mM Tris-borate) or 150 mM NaCl (distorted structures, 10.5 nM DNA, gel 100 mM Tris-borate); 15 min, temperature not stated. Conditions: protein: recombinant; tags: N-terminal 6xHisTEV removed by TEV protease; chain copies: 2; label: 5'-HEX; blunt.

Setting [18] is: four-way junction 1:2 2:3 3:4 4:1.
Setting [19] is: duplex with 7 unpaired A in strand 2.
Where [20] appears, read: duplex with 1 unpaired A in strand 2.
Setting [21] is: duplex with 3 unpaired A in strand 2.

The record followed here is PMC5683647, “Comparison of histone-like HU protein DNA-binding properties and HU/IHF protein sequence alignment”.

What is called Kd is the equilibrium constant for the complex coming apart.

DNA invasion (inv): the binding signal (fold affinity vs nicked DNA) in series [1] was determined as 20; with HU [2], 5.
As for “AGTCTAGAGTGCAGTTGAGTCCTTGCTACGACGGATCCCTTAGGTCAG (double strand) [D48 dsDNA (ds)]”, the Kd turned out to be 440 nM in series [3], 1100 nM in series [4], 117 nM in [5] and 293 nM in series [6].
“AGTCTAGAGTGCAGTTGAGTCCTTGCTACGACGGATCCCTTAGGTCAG / CTGACCTAAGGGATCCGTCGTAGCAAGGGGCTGATACCGGAAGCTTCT / AGAAGCTTCCGGTATCAGCCTGAGCGGTGGTTGAATTCCT / AGGAATTCAACCACCGCTCAACTCAACTGCACTCTAGACT [four-way junction (J)]” had a binding signal (fold affinity vs nicked DNA) in series [1] of 10.
For the molecule “AGTCTAGAGTGCAGTTGAGTCCTTGCTACGACGGATCCCTTAGGTCAG / CTGACCTAAGGGATCCGTCGTAGCAAGAGACTCAACTGCACTCTAGACT [bulge A1]”, the Kd was 132 nM in series [1] and 35 nM in series [7].

B1: D27 dsDNA (dsDNA)
DNA 1: AGTCTAGAGTGCAGTTGAGTCCTTGCT
DNA 2: AGCAAGGACTCAACTGCACTCTAGACT
Consider B1, for which the binding result with HU [8] is on record as “binds”.

B2: four-way junction (J) (structured_DNA)
DNA 1: AGTCTAGAGTGCAGTTGAGTCCTTGCTACGACGGATCCCTTAGGTCAG
DNA 2: CTGACCTAAGGGATCCGTCGTAGCAAGGGGCTGATACCGGAAGCTTCT
DNA 3: AGAAGCTTCCGGTATCAGCCTGAGCGGTGGTTGAATTCCT
DNA 4: AGGAATTCAACCACCGCTCAACTCAACTGCACTCTAGACT
Regarding B2, the equilibrium dissociation constant (Kd) stood at 110 ± 25 nM with HU [9] (setting [18]), 44 ± 10 nM with HU alpha [10] (setting [18]), 26 ± 6 nM with HU [11] (setting [18]) and 35 ± 8 nM with HU [12] (setting [18]). The binding signal with HU [13] is 4 fold affinity vs nicked DNA.

B3: bulge A7 (structured_DNA)
DNA 1: B2 DNA 1
DNA 2: CTGACCTAAGGGATCCGTCGTAGCAAGAAAAAAAGACTCAACTGCACTCTAGACT
Turning to B3, the Kd in the series with HU [9] (setting [19]) is 220 ± 60 nM; in the series with HU alpha [10] (setting [19]) it was 44 ± 10 nM; with HU [11] (setting [19]) it was 44 ± 12 nM; with HU [12] (setting [19]), 12 ± 4 nM.

B4: bulge A1 (structured_DNA)
DNA 1: B2 DNA 1
DNA 2: CTGACCTAAGGGATCCGTCGTAGCAAGAGACTCAACTGCACTCTAGACT
For the molecule B4, the Kd came to 440 ± 120 nM in the series with HU [9] (setting [20]), 88 ± 20 nM with HU alpha [10] (setting [20]), 132 ± 30 nM with HU [11] (setting [20]) and 35 ± 8 nM in the series with HU [12] (setting [20]).

B5: nicked DNA (n) (structured_DNA)
DNA 1: B2 DNA 1
DNA 2: CTGACCTAAGGGATCCGTCGTAGCAAGG
DNA 3: ACTCAACTGCACTCTAGACT
As for B5, the Kd in the series with HU [9] (nick 1:2 1:3) turned out to be 440 ± 100 nM; with HU alpha [10] (nick 1:2 1:3), 88 ± 20 nM; with HU [11] (nick 1:2 1:3), 264 ± 70 nM; in the series with HU [12] (nick 1:2 1:3), 35 ± 8 nM.

B6: bulge A3 (structured_DNA)
DNA 1: B2 DNA 1
DNA 2: CTGACCTAAGGGATCCGTCGTAGCAAGAAAGACTCAACTGCACTCTAGACT
As for B6, the Kd with HU [9] (setting [21]) was 440 ± 120 nM; in the series with HU alpha [10] (setting [21]), 88 ± 20 nM; with HU [11] (setting [21]), 132 ± 30 nM; with HU [12] (setting [21]), 35 ± 8 nM.

B7: overhang (ov) (structured_DNA)
DNA 1: B2 DNA 1
DNA 2: ACTCAACTGCACTCTAGACT
B7: the Kd with HU [9] (3' overhang 28 nt) turned out to be 120 ± 25 nM; with HU alpha [10] (3' overhang 28 nt), 50 ± 15 nM; with HU [11] (3' overhang 28 nt), 30 ± 8 nM; with HU [12] (3' overhang 28 nt), 45 ± 10 nM.

B8: D29 dsDNA (dsDNA)
DNA 1: AGTCTAGAGTGCAGTTGAGTCCTTGCTAC
DNA 2: GTAGCAAGGACTCAACTGCACTCTAGACT
Consider B8, for which the binding result with HU alpha [14] is on record as “binds”.

B9: D21 dsDNA (dsDNA)
DNA 1: AGTCTAGAGTGCAGTTGAGTC
DNA 2: GACTCAACTGCACTCTAGACT
As to B9, the binding result with HU alpha [15] and with HU [16] was “binds” in each case.

B10: D36 dsDNA (dsDNA)
DNA 1: AGTCTAGAGTGCAGTTGAGTCCTTGCTACGACGGAT
DNA 2: ATCCGTCGTAGCAAGGACTCAACTGCACTCTAGACT
For B10, the binding result in the series with HU alpha [15] and with HU [17] was “binds” throughout.
